Results taken from publication PMC7826288, “Dynamics of TRF1 organizing a single human telomere” (Nucleic Acids Research, 2020).

Biological target: the molecule itself
Assay: SEC; Superdex 200 Increase 10/300 GL, 20 mM Tris-HCl (pH 8.0), 200 mM NaCl; molecular weight assessed against standard molecular markers

B1: human TRF1(3-439) (natural protein, UniProt P54274 3-439, looked up)
chain: EDVSSAAPSPRGCADGRDADPTEEQMAETERNDEEQFECQELLECQVQVGAPEEEEEEEEDAGLVAEAEAVAAGWMLDFLCLSLCRAFRDGRSEDFRRTRNSAEAIIHGLSSLTACQLRTIYICQFLTRIAAGKTLDAQFENDERITPLESALMIWGSIEKEHDKLHEEIQNLIKIQAIAVCMENGNFKEAEEVFERIFGDPNSHMPFKSKLLMIISQKDTFHSFFQHFSYNHMMEKIKSYVNYVLSEKSSTFLMKAAAKVVESKRTRTITSQDKPSGNDVEMETEANLDTRKSVSDKQSAVTESSEGTVSLLRSHKNLFLSKLQHGTQQQDLNKKERRVGTPQSTKKKKESRRATESRIPVSKSQPVTPEKHRARKRQAWLWEEDKNLRSGVRKYGEGNWSKILLHYKFNNRTSVMLKDRWRTMKKLKLISSDSED
notes: also called TRF1 dimer; source: E. coli BL21(DE3), purified (Ni-NTA, 3C protease, HiTrap Heparin, Superdex 200)
stoichiometry N: 2
